# B1: IL-10 delivery construct: recombinant homodimeric fusion protein: N-terminal methionine, cholix386 domain, polyGlySer spacer, recombinant human IL-10 (protein)
# chain: MVEEALNIFDECRSPCSLTPEPGKPIQSKLSIPSDVVLDEGVLYYSMTINDEQNDIKDEDKGESIITIGEFATVRATRHYVNQDAPFGVIHLDITTENGTKTYSYNRKEGEFAINWLVPIGEDSPASIKISVDELDQQRNIIEVPKLYSIDLDNQTLEQWKTQGNVSFSVTRPEHNIAISWPSVSYKAAQKEGSRHKRWAHWHTGLALCWLVPMDAIYNYITQQNCTLGDNWFGGSYETVAGTPKVITVKQGIEQKPVEQRIHFSKGNAMSALAAHRVCGVPLETLARSRKPRDLTDDLSCAYQAQNIVSLFVATRILFSHLDSVFTLNLDEQEPEVAERLSDLRRINENNPGMVTQVLTVARQIYNDYVTHHPGLTPEQTSAGAQAGGGGSGGGGSGGGGSPGQGTQSENSCTHFPGNLPNMLRDLRDAFSRVKTFFQMKDQLDNLLLKESLLEDFKGYLGCQALSEMIQFYLEEVMPQAENQDPDIKAHVNSLGENLKTLRLRLRRCHRFLPCENKSKAVEQVKNAFNKLQEKGIYKAMSEFDIFINYIEAYMTMKIRN
# modifications: homodimer
# Experiments:
# [1] = tested on: IL-1Ra; assay: Single oral capsule dose in NHP: plasma IL-1Ra; assay type: in vivo, Macaca fascicularis
# Protocol: The purpose of the IL-1Ra assay was to measure endogenous IL-1Ra in NHP plasma. The antibody pair in this sandwich immunoassay reacted with both human and NHP IL-1Ra. Samples were quantitated using an 8-point standard curve prepared from a human IL-1Ra calibrator (ranging from 5.5-4021 pg/mL, plus 0 pg/mL). Biotinylated anti-NHP IL-1Ra capture antibody was added to a MSD Small Spot Streptavidin plate and incubated for an hour at RT with shaking. Controls that represent low ([…]), mid ([…]) and high concentrations (3245 pg/mL) were prepared in pooled plasma, Standards (Calibrator 9 Blend) were prepared in Diluent 43 (MSD Cat No R50AG), and samples diluted 10 fold in Diluent 43. Standards, controls and diluted samples were added to the assay plate, and the plate incubated for 2 hours at room temperature with shaking. The plate was washed 3 times with PBST, and 1× SULFO TAG anti-IL-1Ra Antibody added to the plate. The plate was incubated for 1 hour at room temperature with shaking. Following a wash step, 2×MSD Read buffer was added to the wells of the plate, and the plate read using the MSD Sector Imager 600 plate reader. The lower limit of detection of each analyte is defined as 2.5 standard deviation above background.
# (§1) IL-10 delivery construct dosing at multiple fixed doses in non-naïve adult male Macaca fascicularis was conducted by Valley Biosystems (West Sacramento, Calif.). […] Dosing groups are described in TABLE 45.
# [2] = Single oral capsule dose in NHP: plasma total IL-10; assay type: in vivo, Macaca fascicularis; conditions: for plasma total IL-10 Tmax: oral
# Excerpt: IL-10 delivery constructs (SEQ ID NO: 5) and caffeine were filled by weight into size-1 Capsugel V-Cap Hydroxypropyl Methylcellulose (HPMC) capsules, for oral administration. The capsules were then successively coated in a pan spray coater with three layers of polymers. The first and third layer were thin coatings of HPMC, the first to seal the crease where the capsule shells come together, and the third to minimize sticking of the capsules to each other. The second coating layer was comprised of a 50:50 mixture of Eudragit® (Evonik Industries AG) enteric acrylic polymers FS 30 D and L 30 D-55, designed to dissolve and allow the capsule to open at pH 6.5.
# The MSD Small Spot IL-10 plate was washed 3 times with PBST before use. Standards were prepared in Diluent 2 (MSD Cat No R51BB), and samples diluted 2-fold in Diluent 2. Standards and diluted samples were added to the assay plate and the plate incubated for 2 hours at room temperature with shaking. The plate was washed 3 times with PBST and 1× SULFO TAG anti-huIL-10. Antibody was added to the plate before incubation for 1 hour at room temperature with shaking. Following a wash step, 2×MSD Read buffer was added to the wells of the plate and the plate is read in the MSD Sector Imager 600 plate reader. The lower limit of detection of each analyte is defined as 2.5 standard deviation above background.
# as §1
# Animals were fasted until after the 3 hour blood sample collection, when food was given. For dosing, the animals were manually restrained and a bite block placed between the jaws. A pill gun containing the dosing capsule was inserted into the back of the oral cavity and the capsule released. Up to 4 capsules were administered consecutively and a small amount of water given to induce swallowing. Once the administration of the dose was confirmed, the bite block was removed and the head released.
# Blood samples were collected in K2EDTA tubes from each animal pre-dose and at 0.5, 1, 2, 3, 4, 5, 6, 7, 8, and 24 hours post-dose. Animals were returned to home cages following the 2-hour sample collection. Following physical restraint, blood samples were collected via direct venous puncture using a cephalic, femoral or saphenous vein, which were processed to plasma and stored frozen at −60° C. until shipment.
# [3] = Phase 1a single ascending dose in healthy male volunteers; assay type: in vivo, human
# Protocol: In part B of the study, early data was gathered on the safety and tolerability, pharmacokinetics, pharmacodynamics and early clinical response following multiple ascending doses of the IL-10 delivery construct in Ulcerative Colitis (UC) patients (Part B).
# Part A consisted of a single-ascending dose (SAD) escalation in healthy male volunteers. Six cohorts consisting of orally administered single ascending doses were conducted. At each dose level, 6 subjects were enrolled, randomized 2:4 to receive a single dose of placebo or the IL-10 delivery construct on day 1. The doses selected were 1 mg, 3 mg, 10 mg, 30 mg, 60 mg, and 120 mg.
# [4] = tested on: chemokines, growth factors, cytokines; assay: Luminex 38-plex circulating cytokines, oxazolone colitis (Example 14); assay type: in vivo, mice
# Protocol: Each sample was measured in duplicate.
# [5] = Intracolonic spray in NHP: IL-1Ra, pSTAT3, construct and IL-10 in tissue and serum; assay type: in vivo, cynomolgus monkeys
# Excerpt: This was achieved using a colonoscope with an associated spray nozzle. In this way, refined information for onset and duration of IL-1Ra induction could be obtained at specific local doses. […] The variability of pSTAT3/total STAT3 detected was consistent with tissue capture and stability challenges in this in vivo model. Measurement of tissue delivery construct levels had similar tissue capture and stability challenges, showing low and variable amounts in the tissue samples collected (FIG. 143). […] Since IL-10 can induce cells to produce more IL-10, we also looked for induced IL-10. […] It is important to note, due to the similarity of human and NHP IL-10, that ELISA values shown could also include hIL-10 that has somehow separated from the carrier domain of the delivery construct molecule. While this cannot be ruled out, no other data supports this as an outcome and it appears likely that the majority, if not all, tissue and serum IL-10 measured represents an NHP source.
# [6] = tested on: growth factors, chemokines and cytokines; assay type: in vivo, mice
# [7] = tested on: IL-1Ra, IL-1β; assay: RT-PCR of IL-1Ra and IL-1β in near-distal colon; assay type: in vivo, mice; conditions: 9 mg/kg
molecule,measurement,setting,value
B1,plasma IL-1Ra Cmax,"[1]; 82 mg, oral","26,367 pg/mL"
same,time of plasma IL-1Ra Cmax,"[1]; 82 mg, oral",3 hours post-dose
same,time by which plasma IL-1Ra returned to baseline,[1]; all dose groups,≤ 24 h
same,plasma IL-1Ra and IFN-γ after oral enteric-coated capsules,[1]; compared with intravenous administration,increased IL-1Ra without significant induction of IFN-γ
same,plasma total IL-10 Tmax,[2]; 1 mg,4 h
same,plasma total IL-10 Tmax,[2]; 4 mg,3 h
same,plasma total IL-10 Tmax,[2]; 20.5 mg,2 h
same,plasma total IL-10 Tmax,[2]; 82 mg,2 h
same,time at which plasma total IL-10 had returned to baseline,[2]; all doses,6 hours post-dose
same,IL-1Ra induction at high doses,[3]; 60 and 120 mg,loss of immunomodulatory activity
same,drug in blood,[3]; all doses (1-120 mg),no drug was detected in the blood
same,adverse events in 24 active subjects,"[3]; all mild, self-limiting",2
same,IL-1Ra expression,[3]; single dose,able to induce IL-1Ra expression
same,safety and tolerability,[3]; single oral doses 1-120 mg,safe and well tolerated
same,"increased serum levels of MCSF, IL12 p70, IL-3",[4]; 8.45 mg/kg,Treatment-mediated suppression
same,reduction of plasma IL-23 compared with Vehicle,[4]; 8.45 mg/kg prophylactic,73%
same,reduction of plasma IL-6 compared with Vehicle,"[4]; 8.45 mg/kg prophylactic, Luminex",33%
same,serum levels of IL-10,[5],increased in a dose-dependent manner
same,serum levels of the delivery construct,"[5]; 1, 3, or 10 mg colonic spray",below the assay detection limit
same,time to reach the lamina propria following luminal application,"[5]; cynomolgus monkey, in vivo",~15 min
same,tissue IL-10 levels,[5]; within 15 min after spray,dose-dependent and transient increases
same,plasma TGF-β relative to Vehicle,[6]; 3.0 mg/kg,reduced
same,production of IL-12 and IL-17,[6]; 9.0 mg/kg,prevented
same,plasma MCSF,[6]; highest dose (9 mg/kg),reduced
same,"oxazolone-induced changes in LIX, LIF, IP10","[6]; mouse, in vivo",mitigated
same,"plasma IL-3, IL-4 (9.0 mg/kg), IL-28 (3.0 and 9.0 mg/kg), IL-31 (0.3 mg/kg)","[6]; mouse, in vivo",to near-base line levels
same,plasma MIP1α,"[6]; mouse, in vivo",trend towards a reduction
same,oxazolone-induced increase in plasma GCSF/CSF3,[6]; prophylactic pre-treatment,attenuated
same,plasma IL-13 and IL-15,[6]; vs Vehicle,trend towards an IL-10 delivery construct-mediated decrease
same,IL-1Ra/IL-1β mRNA ratio in colonic tissue,[7],increase
same,mRNA expression of IL-1Ra in near-distal colonic tissue,[7],trend towards augmented mRNA expression of IL-1Ra

# From patent publication US11160869B2 (priority 2019, dated 2021)
